We go through 2 molecules from article PMC7837213, “Systematic Activity Maturation of a Single-Domain Antibody with Non-canonical Amino Acids through Chemical Mutagenesis” (Cell Chemical Biology, 2021).

This test deals with T1, Beta - Amyloid (1 - 42) - Lys(Biotin) - NH2, Human (human, UniProt P05067 672-713, Lys(Biotin) added at the C-terminus; C-terminal amide (NH2)).
T1 construct: amyloid-beta peptide (1-42), human, cut product of the amyloid precursor protein; numbers count on: the Aβ peptide; added C-terminal lysine that carries the biotin, amidated; Held on streptavidin biosensors by the C-terminal biotin; also called monomeric C-terminally biotinylated Aβ42; C-terminally immobilized monomeric Aβ42; source: bought: Anaspec
Nature of the test: BLI; C-terminally biotinylated monomeric Aβ42 (5 μg/ml) on streptavidin biosensors; antibodies at 20 μM in PBS + 0.1% BSA + 0.02% TWEEN 20, 30°C; association 900 s, dissociation 1200 s; signal of biocytin-coated sensors subtracted. The settings on record: both partners purified. On the technique in general: In BLI a coated tip is dipped into the sample, and binding shifts an interference pattern.

T1 sequence (P05067 other isoform, or with tags, fused parts or gaps): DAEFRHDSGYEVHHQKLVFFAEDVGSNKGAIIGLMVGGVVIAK

B1: DesAb-Aβ(3–9) (antibody, V domains shown)
VH: EVQLVESGGGLVQPGGSLRLSCAASGFNIKDTYIGWVRRAPGKGKEWVASIYPTNGYTRYADSVKGRFTISADTSKNTAYLQMNSLRAEDTAVYYCAAGSHETLTLREEEAAAWGQGTLVTVSS
notes: single-domain antibody on a human VH scaffold with the in-silico-designed CDR3 loop HETLTLR and a thermally stabilizing mutation; No cleavage of the tag is told; also called the starting construct; starting single-domain antibody; source: E. coli BL21 (DE3)-Gold, pRSET-B vector, purified (Ni-NTA, SEC); not shown: His6, N-terminal, kept
Consider B1, for which the binding result is given as “binds”.

B2: DesAb-Aβ(3–9) (T138captamine) (antibody, V domains shown)
VH: EVQLVESGGGLVQPGGSLRLSCAASGFNIKDTYIGWVRRAPGKGKEWVASIYPTNGYTRYADSVKGRFTISADTSKNTAYLQMNSLRAEDTAVYYCAAGSHECLTLREEEAAAWGQGTLVTVSS
modifications: position 138: non-canonical side chain, captamine (2-(dimethylamino)ethanethiol) added to dehydroalanine (Dha) by thiol-Michael addition; epimeric mixture of D and L side chains
notes: T138 is replaced through T138C and Dha by the captamine adduct; The new residue at 138 is written as C because the thiol adduct of Dha is an S-alkylated cysteine (S-(2-dimethylaminoethyl)cysteine); also called the captamine mutant; not shown: His6, N-terminal, kept
For the molecule B2, the binding result is given as “binds”.
